Data on 10 molecules can be found in US20250215081A1.

First the molecules themselves.
B1: anti-CD3 antibody CD3hi (mAb) (antibody, V domains shown)
VH: EVQLVESGGGLVQPGGSLKLSCAASGFTFNTYAMNWVRQASGKGLEWVGRIRSKYNNYATYYADSVKDRFTISRDDSKSTLYLQMNSLKTEDTAVYYCVRHGNFGNSYVSWFAYWGQGTLVTVSS
VL: QAVVTQEPSLTVSPGGTVTLTCRSSTGAVTTSNYANWVQQKPGQAPRGLIGGTNKRAPWTPARFSGSLLGDKAALTLSGAQPEDEAEYFCALWYSNLWVFGGGTKLTVL
B2: anti-CD3 antibody CD3lo (mAb) (antibody, V domains shown)
VH: EVQLVESGGGLVQPGGSLKLSCAASGFTFNTYAMNWVRQASGKGLEWVGRIRSKYNNYATYYADSVKDRFTISRDDSKSTAYLQMNSLKTEDTAVYYCVRHGNFGNSYVSWFAYWGQGTLVTVSS
VL: QAVVTQEPSLTVSPGGTVTLTCRSSTGAVTTSNYANWVQQKPGQAPRGLIGGTNKRAPWTPARFSGSLLGDKAALTLSGAQPEDEAEYFCALWYSNLWVFGGGTKLTVL
B3: anti-CD3 antibody CD3med (mAb) (antibody, V domains shown)
VH: EVQLVESGGGLVQPGGSLKLSCAASGFTFNTYAMNWVRQASGKGLEWVGRIRSKYNNYATYYADSVKDRFTISRDDSKNTAYLQMNSLKTEDTAVYYCVRHGNFGNSYVSWFAHWGQGTLVTVSS
VL: QAVVTQEPSLTVSPGGTVTLTCGSSTGAVTSSNYANWVQQKPGQAPRGLIGGTNKRAPWTPARFSGSLLGGKAALTLSGAQPEDEAEYYCALWYSNLWVFGGGTKLTVL

A word on the Kd: it is the equilibrium constant for the complex coming apart. Read a high Kd as a looser complex.

One assay deals with human Fc gamma receptor 1A (human) (UniProt P12314). The experiment in a line: SPR (Biacore T200), antibody amine-coupled on CM5 (~950 RU), FcγR1A as analyte.
UniProt P12314, sequence (P12314 16-288 limits assumed): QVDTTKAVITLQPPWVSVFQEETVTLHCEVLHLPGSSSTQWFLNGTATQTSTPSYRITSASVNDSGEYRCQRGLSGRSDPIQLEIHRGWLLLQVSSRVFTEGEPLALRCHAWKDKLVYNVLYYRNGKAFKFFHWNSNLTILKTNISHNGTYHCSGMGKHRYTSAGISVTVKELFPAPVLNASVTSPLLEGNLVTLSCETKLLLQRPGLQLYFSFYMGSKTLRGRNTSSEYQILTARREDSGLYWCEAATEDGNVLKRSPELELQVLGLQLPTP
As to “Anti-CD3 DANAPA-IgG1 (D265A/N297A/P329A) (antibody)”, the Maximum response at 100 nM hFcgammaRIA (RU) worked out at 11 RU.

“Anti-CD3 DAPASK-IgG1 (D265A/P329A/S267K) (antibody)” had a Maximum response at 100 nM hFcgammaRIA (RU) of 13 RU.

“Anti-CD3 GADAPA-IgG1 (G237A/D265A/P329A) (antibody)” registered a Maximum response at 100 nM hFcgammaRIA (RU) of 16 RU.

Turning to “Anti-CD3 GADAPASK-IgG1 (G237A/D265A/P329A/S267K) (antibody)”, the Maximum response at 100 nM hFcgammaRIA (RU) came out at 10 RU.

The molecule “Anti-CD3 LALAGA-IgG1 (L234A/L235A/G237A) (antibody)” registered a Maximum response at 100 nM hFcgammaRIA (RU) of 15 RU.

Consider “Anti-CD3 LALAPG-IgG1 (L234A/L235A/P329G) (antibody)”, for which the Maximum response at 100 nM hFcgammaRIA (RU) came to 18 RU.

Molecule “Anti-CD3 LALASKPA-IgG1 (L234A/L235A/S267K/P329A) (antibody)” had a Maximum response at 100 nM hFcgammaRIA (RU) of 9 RU.

The target in another assay is CD3-Fc. Description: SPR (Biacore T200, 25 C), CD3-Fc captured on anti-hFc CM5 chip, antibody as analyte, 1:1 model. On the technique in general: In SPR one partner is held on a chip, and binding of the other changes the refractive index at the surface.
Consider B1, for which the dissociation constant (Kd) is 16 nM.

Molecule B2 came in with a Kd of 48 nM.

As to B3, the equilibrium dissociation constant (Kd) worked out at 30 nM.
